Laboratory results from the DeepSol protein solubility set.

Experiment: soluble on expression in E. coli; label from the status in PepcDB or PDB records

Soluble on expression in E. coli, not soluble:
MRKQWLGICIAAGMLAACTSDDGQQQTVSVPQPAVCNGPIVEISGADPRFEPLNATANQDYQRDGKSYKIVQDPSRFIQAGLAAIYDAEPGSNLTASGEAFDPTQLTAAHPTLPIPSYARITNLANGRMIVVRINDRGPYGNDRVISLSRAAADRLNTSNNTKVRIDPIIVAQDGSLSGPGMACTTVAKQTYALPAPPDLSGGAGTSSVSGPQGDILPVSNSTLKSEDPTGAPVTSSGFLGAPTTLAPGVLEGSEPTPAPQPVVTAPSTTPATSPAMVTPQAASQSASGNFMVQVGAVSDQARAQQYQQQLGQKFGVPGRVTQNGAVWRIQLGPFANKAEASTLQQRLQTEAQLQSFITTAQ
MLYDKSLEKDNCGFGLIAHIEGEPSHKVVRTAIHALARMQHRGAILADGKTGDGCGLLLQKPDRFFRIVAEERGWRLAKNYAVGMIFLNKDPELAAASRHIVEEELQQETLSIVGWRDVPTNEGVLGEIALSSLPRIEQIFVNAPAGWRPRDMERRLFIARRRIEKRLQDDKDFYVCSLSNLVNIYKGLCMPADLPRFYLDLADLRLESAICLFHQRFSTNTVPRWPLAQPFRYLAHNGEINTITGNRQWARARTYKFQTPLIPDLQSAAPFVNETGSDSSSLDNMLELLLAGGMDIIRAMRLLVPPAWQNNPDMDQDLRAFFDFNSMHMEPWDGPAGIVMSDGRFAACNLDRNGLRPARYVITKDKLITCASEVGIWDYQPDEVVEKGRVGPGELMVIDTRGGRILHSAETDDDLKSRHPYKEWMEKNVRRLVPFEELPDEEVGSRELDDDLLASYQKQFNYSAEELDSVIRVLGENGQEAVGSMGDDTPFAVLSSQPRIIYDYFRQQFAQVTNPPIDPLREAHVMSLATSIGREMNVFCEAEGQAHRLSFKSPILLYSDFKQLTTMKEEHYRADRLDITFDVTETTLNATVKALCDKAEQMVRNGTVLLVLSDRNIGKNRLPVPAPMAVGAVQTRLVEQSLRCDANIIVETGSARDPHHFAVLLGFGATAIYPYLAYETLGRLIDTQAIAKNYRTVMQNYRNGINKGLYKIMSKMGISTIASYRCSKLFEAVGLHDDVVNLCFQGVVSRIGGASFDDFQQDLLNLSKRAWLARKPISPGGLLKYVHGGEYHAYNPDVVRTLQQAVQSGEYSDYQEYAKLVNERPASTLRDLLAIHPDGEAVTIDEVEPASELFKRFDTAAMSIGALSPEAHEALAEAMNSLGGNSNSGEGGEDPARYGTNKVSRIKQVASGRFGVTPAYLVNADVIQIKVAQGAKPGEGGQLPGDKVTPYIAKLRYSVPGVTLISPPPHHDIYSIEDLAQLIFDLKQVNPKAMISVKLVSEPGVGTIATGVAKAYADLITIAGYDGGTGASPLSSVKYAGCPWELGLVETQQALVANGLRHKIRLQVDGGLKTGVDIIKAAILGAESFGFGTGPMVALGCKYLRICHLNNCATGVATQDDKLRKNHYHGLPFKVTNYFEFIAREVRELMASLGVTRLVDLIGRTDLLKELEGFTAKQQKLALSRLLETAEPHPGKALYCTENNPPFDNGVLNAQLLQQAKPFVDARQSKTFWFDIRNTDRSVGASLSGYIAQTHGDQGLASDPIKAHFSGTAGQSFGVWNAGGVELYLTGDANDYVGKGMAGGLIAIRPPVGSAFLSHKASIIGNTCLYGATGGRLYAAGRAGERFGVRNSGAITVVEGIGDNGCEYMTGGIVCVLGKTGVNFGAGMTGGFAYVLDEDGEFRKRVNPELVEVLDVDSLAIHEEHLRGLITEHVQHTGSQRGEEILSRWSSFSTQFALVKPKSSDVKALLGHRSRSAAELRVQAQ
MGHHHHHHSHMPGRSSSNSGSTGFISFSGVESALSSLKNFQACINSGMDTASSVALDLVESQTEVSSEYSMDKAMVEFATLDRQLNHYVKAVQSTINHVKEERPEKIPDLKLLVEKKLLALQSKNSDADFQNNEKFVQFKQQLKELKKQCGLQADREADGTEGVDEDIIVTQSQTNFTCPITKEEMKKPVKNKVCGHTYEEDAIVRMIESRQKRKKKAYCPQIGCSHTDIRKSDLIQDEALRRAIENHNKKRHRHSE
MDGVVIKNTGSQYLVRCTDGTELYCMAKGNLRLKGIRSTNPVTVGDRVEIVPASQDGQPAYIKRIHPRRNYIIRRASNLSKESHILGANLDAAVLVCTINDPVTTTVFIDRFLATAEAYRVPVILVFNKIDCYTQEDRLQLDRLSAVYTAIGYPCCHVSAITGEGLPDLKSLLDGKLTLLAGHSGVGKSSLINALIPHADLRTGAISQAHHTGMHTTTFSQMIDFPDLSPGSALIDTPGIKGFGTLEMGEYEVSHYFPEIFAASKGCRFGNCTHTHEPGCAVLEALRRGEIAESRYISYLSILEDENAERYRPEY
MAHHHHHHMSKSDLFNDAQVPMRATVLRFGDDVEGASYPEAALTIDDAAVPAEAKVEVYHDGDNSGSAHESVPHHAQDLRHDFTSGILNCHESCAVCLDACLCMYCTASAHHNFLMNDTEGLYLPVCWGLFCVDVGLSAVSSYLPSSLHFHTYFMRSAIRRRYNLHSAGAPVNSNTHGSSSSGCDCTTESMLDLLTVCFCLPCAIAQHQREIMHQGDWCGGVFSNRYSLQTPATVHTI
MVCVSFPLFPEREADLCQRLVHLLDELRHHFVEIGHVLRIPLNDDVVNAFAFHARVVVCKEPCVFSGHPHAVLHLGHVRRLDGFETAKAEFHEVAGGERAFKLKAEPVTAQAVRGAGGAHALVTEQDRRLRDFHVSGELEEGAGVFFVLLAPGQRLGVNLWRYTGAYLGEQGVEVGHFHVCPFAARSRLGNDVVSVRGSNNSEP
MNDKIQKLIKKLAKECQKEDVALSLAAIDLEGEMAISQVGKGTIVAIAAHSQYTLTKEKLEQSDCDCPKHRLLKEMYGTETETTTKNTHTFVTDDPNDLMDILSKIFRGEFK
MSSDKFKLDTLFDDNDEIIEPDGADVKKRNVAYYYHKDVGHFHYGQLHPMKPQRLVVCNDLVVSYEMPKYMTVVESPKLDAADISVFHTEDYVNFLQTVTPKLGLTMPDDVLRQFNIGEDCPIFAGLWDYCTLYAGGSVEGARRLNHKMNDIVINWPGGLHHAKKSEASGFCYVNDIVLGILELLKYHKRVLYIDIDIHHGDGVQEAFNNSDRVMTVSFHRFGQYFPGSGSIMDKGVGPGKYFAINVPLMAAIRDEPYLKLFESVISGVEENFNPEAIVLQCGSDSLCEDRLGQFALSFNAHARAVKYVKSLGKPLMVLGGGGYTLRNVARCWALETGVILGLRMDDEIPGTSLYSHYFTPRLLRPNLVPKMNDANSAAYLASIEKETLACLRMIRGAPSVQMQNIVGIRLDEIEQIEENERLQKSSKSSIEYEVGKVSEKMEEECFVEEDSKPPSFPPGQDPRRIGQYWGYDRSGLAPPRSHSDVIEEAKYEDRDRRKDLNIPGIP
MKQCAHTKVWQTIVAEAREQAEQEPMLASFYHATIIKHDSLKAALSYILANRLNTASMPAMAVREVIEEAFAADPSISEAAACDICATVNRDPAVSMYSMPLLYLKGYHALQGYRVANWLWRQGRKALATYFQNQISVACQVDIHPAARIGRGIMLDHATGIVIGETAVVEDDVSILQDVTLGGTGKECGDRHPKIREGVMIGAGAKILGNIEVGEGAKIGSGSVVLQAVPPHTTVAGVPARIVGRPQSDKPSLDMDQQFNGRSQTFIGGDGI

Soluble on expression in E. coli, soluble:
MELERIVSAALLAFVQTHLPEADLSGLDEVIFSYVLGVLEDLGPSGPSEENFDMEAFTEMMEAYVPGFAHIPRGTIGDMMQKLSGQLSDARNKENLQPQSSGVQGQVPISPEPLQRPEMLKEETRSSAAAAADTQDEATGAEEELLPGVDVLLEVFPTCSVEQAQWVLAKARGDLEEAVQMLVEGKEEGPAAWEGPNQDLPRRLRGPQKDELKSFILQKYMMVDSA
MKKAKLGKSDLQVFPIGLGTNAVGGHNLYPNLNEETGKELVREAIRNGVTMLDTAYIYGIGRSEELIGEVLREFNREDVVIATKAAHRKQGNDFVFDNSPDFLKKSVDESLKRLNTDYIDLFYIHFPDEHTPKDEAVNALNEMKKAGKIRSIGVSNFSLEQLKEANKDGLVDVLQGEYNLLNREAEKTFFPYTKEHNISFIPYFPLVSGLLAGKYTEDTTFPEGDLRNEQEHFKGERFKENIRKVNKLAPIAEKHNVDIPHIVLAWYLARPEIDILIPGAKRADQLIDNIKTADVTLSQEDISFIDKLFAPG
IFFMEAMSPQQETLGGQPGRSSSLTGVSRLAGGSCTKKKMKTLAERRRSAPSLILDKALQKRPTTRDSPSASVDTCTFLSSLVCSNRTLLIDGRAELKRGLQRQERHLFLFNDLFVVAKIKYNNNFKIKNKIKLTDMWTASCVDEVGEGNTNAMKSFVLGWPTVNFVATFSSPEQKDKWLSLLQRYINLEKEKDYPKSIPLKIFAKDIGNCAYSKTITVMNSDTANEVINMSLPMLGITGSERDYQLWVNSGKEEAPYPLIGHEYPYGIKMSHLRDSALLTPGSKDSTTPFNLQEPFLMEQLPREMQCQFILKPSRLAAAQQLSDSGHKTFKRRRSIINWAFWRGSSTHLDNLPSSPTSPMPGQLFGISLPNICENDNLPKPVLDMLFFLNQKGPLTKGIFRQSANVKSCRELKEKLNSGVEVHLDCESIFVIASVLKDFLRNIPGSIFSSDLYDHWVSVMDQGNDEEKINTVQRLLDQLPRANVVLLRYLFGVLHNIEQHSSSNQMTAFNLAVCVAPSILWPPASSSPELENEFTKKVSLLIQFLIENCLRIFGEEITSLFREVSVRCDTRENASDISCFQLNDSSYDSLENELNEDVDAPCSDLVKKLGQGSRSMDSVLTLSDYDLDQPEVEGLLTLSDFDLAHSKDEDVQMKRPLESKPVNILVYTKIPLRDHARAPSAMCTPSYLSTAAANAAKSLRRHRRCSEPSIDYLDSKLSYLREFYQKKLRKSSCDAILSQKDEDYLKQNQPLQEEGKTCFKQSLVTGTDVSKKNATTQNTKKKSLSGSEGNHVKLFPKSKPVAISVASYSPMSSQDHSKNQPFDVNTSGYSPPHTADALKGPRTHRRCSEPNIEDQNRKLTYLRGIYSKKQHKTSCEAGLLHGEEDYLKRHKSLQMEGQKLINQSLVMGIEVGKSSATNQNTEKVLPPRLNLCPRTSYSSLSSPGTSPSGSSVSSQDSAFSQISEHSVFTPTETSSPIDCTFQAQRKREDLSPDFSNASHVSGMPGPSSGQACSRPAYTKKDTMEWHSQMHSVTLHPSTWLRNGVASLKNWSLKKKAKAARPEEEKIASPKGPLEPPPHASGVPEANSLQEEQKDLPLRAAEGLSPVQSAQRCSSSPFQDSERHCSSPFSLVESRLKLCMKSHEEIEPGSQSSSGSLPWERASASSWTLEDATSPDSGPTVVCDIEDRYLTKDI
MAHHHHHHMVKGDCIRAAHLLIKFDGSRNCVSHRTGKSTADLTYDAALAELKQWAKRIADGEITFEDAARQRSDCGSYNSGGDLGFFGPGVMMKPFEDAARSLNVGEVSGVVRTESGLHIIKRLA
MRYTMDIEFSQIHEMVYMHDIVNSDSKKKPRIPLKKFLNAENVLTQTTSWTLNSRYVNVNSVNKVNVKSKVKNSYISRSVNDEFSLTDDEINSFKETLVLSSIDSLSKLVLNNPLSVLFTSTVRRNNNRAKMNVEFDSWICTRCCLEHHHHHH
MERCGWVSQDPLYIAYHDNEWGVPETDSKKLFEMICLEGQQAGLSWITVLKKRENYRACFHQFDPVKVAAMQEEDVERLVQDAGIIRHRGKIQAIIGNARAYLQMEQNGEPFVDFVWSFVNHQPQVTQATTLSEIPTSTSASDALSKALKKRGFKFVGTTICYSFMQACGLVNDHVVGCCCYPGNKPLEHHHHHH
GSPREKVAMEYLQSASRVLTRSQLRDVVASSHLLQSEFMEIPMNFVDPKEIDIPRHGTKNRYKTILPNPLSRVCLRPKNITDSLSTYINANYIRGYSGKEKAFIATQGPMINTVNDFWQMVWQEDSPVIVMITKLKEKNEKCVLYWPEKRGIYGKVEVLVTGVTECDNYTIRNLVLKQGSHTQHVKHYWYTSWPDHKTPDSAQPLLQLMLDVEEDRLASEGRGPVVVHCSAGIGRTGCFIATSIGCQQLKEEGVVDALSIVCQLRVDRGGMVQTSEQYEFVHHALCLFESRLSPETV
